In US20190202914A1:

B1: CL5′-dPTM′ (antibody, human IgG1, V domains shown)
VH: EVQLVESGGGLIQPGGSLRLSCAVSGFTVSKNYMSWVRQAPGKGLEWVSVVYSGGSKTYADSVKGRFTISRDNSKNTLYLQMNSLRAEDTAVYYCARAVPHSPSSFDIWGQGTMVTVSS
B2: CL5′-eA-dPTM′ (antibody, human IgG1, V domains shown)
VH: B1 VH

Biological target: cynoCTLA-4-his protein (CT4-05227, AcroBio) (cyno) (UniProt G7PL88)
Experiment: SPR, Biacore T200, antibody immobilised, CTLA-4-his injected, 1:1 model

Binder	Kd [nM]	koff [s⁻¹]	kon [M⁻¹ s⁻¹]
B1	0.0591	0.000308	5.21e+06
B2	0.0243	0.00011	4.55e+06
